Experimental findings from patent publication US20260028387A1 (published 2026) are described below.

The assay addresses T1, HLA-A*02:01 (peptide-receptive MHC class I molecule of the UV-ligand exchange assay) (human).
T1 construct: MHC monomer first loaded with a UV-sensitive peptide (not identified) that is cleaved by UV light and exchanged for the test peptide; captured on streptavidin plates
Description: UV-ligand exchange, anti-b2m ELISA; peptide exchange yield grade (>=10% = +; >=20% = ++; >=50 = +++; >=75% = ++++). An excerpt: Candidate peptides for T cell based therapies according to the present invention were further tested for their MHC binding capacity (affinity). The individual peptide-MHC complexes were produced by UV-ligand exchange, where a UV-sensitive peptide is cleaved upon UV-irradiation, and exchanged with the peptide of interest as analyzed. Only peptide candidates that can effectively bind and stabilize the peptide-receptive MHC molecules prevent dissociation of the MHC complexes. To determine the yield of the exchange reaction, an ELISA was performed based on the detection of the light chain (β2m) of stabilized MHC complexes. The assay was performed as generally described in Rodenko et al. (Rodenko et al., 2006).
96 well MAXISorp plates (NUNC) were coated aver night with 2 ug/ml streptavidin in PBS at room temperature, washed 4× and blocked for 1 h at 37° C. in 2% BSA containing blocking buffer. Refolded HLA-A*02:01/MLA-001 monomers served as standards, covering the range of 15-500 ng/ml. Peptide-MHC monomers of the UV-exchange reaction were diluted 100 fold in blocking buffer. Samples were incubated for 1 h at 37° C., washed four times, incubated with 2 ug/ml HRP conjugated anti-02m for 1 h at 37° C., washed again and detected with TMB solution that is stopped with […]. Absorption was measured at 450 nm. Candidate peptides that show a high exchange yield (preferably higher than 50%, most preferred higher than 75%) are generally preferred for a generation and production of antibodies or fragments thereof, and/or T cell receptors or fragments thereof, as they show sufficient avidity to the MHC molecules and prevent dissociation of the MHC complexes.
On the technique in general: An ELISA detects its analyte on a solid surface through an enzyme-linked reagent.

A value given as a limit tells only on which side of the number the result lay.

In the case of KLIDDVHRL (synthetic peptide; source gene SRPR) [KLIDDVHRL (SEQ ID NO: 91)], the peptide exchange yield is ≥ 75%. Next, ALADGVVSQA (synthetic peptide; source gene GPKOW) [ALADGVVSQA (SEQ ID NO: 83)]: 50 to 75%; VLVPYEPPQV (synthetic peptide; source gene TP63) [VLVPYEPPQV (SEQ ID NO: 77)]: 20 to 50%.

B1: HLIAEIHTA (SEQ ID NO: 9) (peptide)
peptide: HLIAEIHTA
notes: synthetic peptide; source gene PTHLH; also called PTHL-001
In the case of B1, the peptide exchange yield lay within 50 to 75%. SMNGGVFAV (synthetic peptide; source gene SLC7A11) [SMNGGVFAV (SEQ ID NO: 67)] showed a peptide exchange yield of 20 to 50%.

B2: GLLVGSEKVTM (SEQ ID NO: 69) (peptide)
peptide: GLLVGSEKVTM
notes: synthetic peptide; source genes KRT14, KRT16, KRT16P3
B2 gave a peptide exchange yield of 50 to 75%. Next, KVANIIAEV (synthetic peptide; source gene RAP1GDS1) [KVANIIAEV (SEQ ID NO: 78)]: 20 to 50%; ILASLATSV (synthetic peptide; source gene TUBGCP2) [ILASLATSV (SEQ ID NO: 74)]: 50 to 75%. Regarding HLLGHLEQA (synthetic peptide; source gene PRDM15) [HLLGHLEQA (SEQ ID NO: 82)], the peptide exchange yield fell in the range of 50 to 75%. Regarding AVLPHVDQV (synthetic peptide; source gene KIAA0947) [AVLPHVDQV (SEQ ID NO: 81)], the peptide exchange yield fell in the range of 50 to 75%.

B3: PAVLQSSGLYSL (SEQ ID NO: 68) (peptide)
peptide: PAVLQSSGLYSL
notes: synthetic peptide; source genes IGHV4-31, IGHG1, IGHG2, IGHG3, IGHG4, IGHM
Regarding B3, the peptide exchange yield was 20 to 50%. Next, ASDPILYRPVAV (synthetic peptide; source gene PKM) [ASDPILYRPVAV (SEQ ID NO: 71)]: 50 to 75%; FLDNGPKTI (synthetic peptide; source gene EIF4G2) [FLDNGPKTI (SEQ ID NO: 87)]: 50 to 75%. Then VLINTSVTL (synthetic peptide; source gene ZNF292) [VLINTSVTL (SEQ ID NO: 93)], with 50 to 75%.

B4: FVLDTSESV (SEQ ID NO: 70) (peptide)
peptide: FVLDTSESV
notes: synthetic peptide; source genes COL6A1, COL6A2
B4 showed a peptide exchange yield of 50 to 75%.

Take KITEAIQYV (synthetic peptide; source gene RORA) [KITEAIQYV (SEQ ID NO: 73)]: the peptide exchange yield fell in the range of 50 to 75%.

SIYEYYHAL (synthetic peptide; source gene HIF1A) [SIYEYYHAL (SEQ ID NO: 90)] returned a peptide exchange yield of 50 to 75%. Molecule SILRHVAEV (synthetic peptide; source gene EIF2S1) [SILRHVAEV (SEQ ID NO: 92)] gave a peptide exchange yield of 20 to 50%. Then SLDENSDQQV (synthetic peptide; source gene S100A2) [SLDENSDQQV (SEQ ID NO: 10)], with 50 to 75%. GQDVGRYQV (synthetic peptide; source gene SSR4) [GQDVGRYQV (SEQ ID NO: 79)] yielded a peptide exchange yield of 20 to 50%.

In turn, SLADSLYNL (synthetic peptide; source gene CAMSAP2) [SLADSLYNL (SEQ ID NO: 89)] gave a peptide exchange yield of 20 to 50%. Then ALLDGGSEAYWRV (synthetic peptide; source gene FAM83A) [ALLDGGSEAYWRV (SEQ ID NO: 8)], with 50 to 75%; and FLPPAQVTV (synthetic peptide; source gene NOL6) [FLPPAQVTV (SEQ ID NO: 72)], with 20 to 50%. Then SLAESLDQA (synthetic peptide; source gene DIS3) [SLAESLDQA (SEQ ID NO: 84)], with 50 to 75%.

On to NIIELVHQV (synthetic peptide; source gene SYK) [NIIELVHQV (SEQ ID NO: 85)], for which the peptide exchange yield is ≥ 75%.

ALQEALENA (synthetic peptide; source gene NUP155) [ALQEALENA (SEQ ID NO: 80)]: the peptide exchange yield lay within 20 to 50%. Next, KVADYIPQL (synthetic peptide; source gene GLS) [KVADYIPQL (SEQ ID NO: 76)]: 50 to 75%.
